B1: scFv; the commonest letter at each place (parent)
chain 1: EVKLDETGGGLVQPGRPMKLSCVASGFTFSDYWMNWVRQSPEKGLEWVAQIRNKPYNYETYYSDSVKGRFTISRDDSKSSVYLQMNNLRVEDMGIYYCTGSYYGMDYWGQGTSVTVS
chain 2: DVVMTQTPLSLPVSLGDQASISCRSSQSLVHSNGNTYLRWYLQKPGQSPKVLIYKVSNRFSGVPDRFSGSGSGTDFTLKISRVEAEDLGVYFCSQSTHVPWTFGGGTKLEIK

The variants in the data set “fluorescein” derive from B1. As to the kind of experiment: Kd (Tite-Seq). The note with it: with fluorescein; format: scFv 4-4-20, heavy + light.
The variants in data set [1] derive from B1. Kind of data set: yeast surface expression (ratio to wild type); higher = more expressed. The settings on record: format: scFv 4-4-20, heavy + light.

Where only a bound is given, the exact number is not on record here.

What is called Kd is the free concentration of one partner at which half of the binding sites on the other are occupied at equilibrium, for simple one-to-one binding.

On to chain 1 EVKLDETGGGLVQPGRPMKLSCVASGFTFYDYWANWVRQSPEKGLEWVAQIRNKPYNYETYYSDSVKGRFTISRDDSKSSVYLQMNNLRVEDMGIYYCTGSYYGMDYWGQGTSVTVS chain 2 DVVMTQTPLSLPVSLGDQASISCRSSQSLVHSNGNTYLRWYLQKPGQSPKVLIYKVSNRFSGVPDRFSGSGSGTDFTLKISRVEAEDLGVYFCSQSTHVPWTFGGGTKLEIK [chain 1 S30Y M34A], for which, in the data set with fluorescein, the Kd was 0.0534 µM. Besides, the yeast surface expression in data set [1] stood at 0.483.
The matching figures for chain 1 EVKLDETGGGLVQPGRPMKLSCVASGFTFYDYWHNWVRQSPEKGLEWVAQIRNKPYNYETYYSDSVKGRFTISRDDSKSSVYLQMNNLRVEDMGIYYCTGSYYGMDYWGQGTSVTVS chain 2 DVVMTQTPLSLPVSLGDQASISCRSSQSLVHSNGNTYLRWYLQKPGQSPKVLIYKVSNRFSGVPDRFSGSGSGTDFTLKISRVEAEDLGVYFCSQSTHVPWTFGGGTKLEIK [chain 1 S30Y M34H]: not below 10 µM and 0.38.
chain 1 EVKLDETGGGLVQPGRPMKLSCVASGFTFWDQWMNWVRQSPEKGLEWVAQIRNKPYNYETYYSDSVKGRFTISRDDSKSSVYLQMNNLRVEDMGIYYCTGSYYGMDYWGQGTSVTVS chain 2 DVVMTQTPLSLPVSLGDQASISCRSSQSLVHSNGNTYLRWYLQKPGQSPKVLIYKVSNRFSGVPDRFSGSGSGTDFTLKISRVEAEDLGVYFCSQSTHVPWTFGGGTKLEIK [chain 1 S30W Y32Q]: the Kd in the data set with fluorescein is not below 10 µM. Also, the yeast surface expression in data set [1] was 0.646.
For chain 1 EVKLDETGGGLVQPGRPMKLSCVASGFTFWDGWMNWVRQSPEKGLEWVAQIRNKPYNYETYYSDSVKGRFTISRDDSKSSVYLQMNNLRVEDMGIYYCTGSYYGMDYWGQGTSVTVS chain 2 DVVMTQTPLSLPVSLGDQASISCRSSQSLVHSNGNTYLRWYLQKPGQSPKVLIYKVSNRFSGVPDRFSGSGSGTDFTLKISRVEAEDLGVYFCSQSTHVPWTFGGGTKLEIK [chain 1 S30W Y32G], in that order: 1.55 µM and 0.706.
With chain 1 EVKLDETGGGLVQPGRPMKLSCVASGFTFYDYWMNWHRQSPEKGLEWVAQIRNKPYNYETYYSDSVKGRFTISRDDSKSSVYLQMNNLRVEDMGIYYCTGSYYGMDYWGQGTSVTVS chain 2 DVVMTQTPLSLPVSLGDQASISCRSSQSLVHSNGNTYLRWYLQKPGQSPKVLIYKVSNRFSGVPDRFSGSGSGTDFTLKISRVEAEDLGVYFCSQSTHVPWTFGGGTKLEIK [chain 1 S30Y V37H], the Kd with fluorescein is not below 10 µM. In data set [1], the yeast surface expression worked out at 0.57.
Regarding chain 1 EVKLDETGGGLVQPGRPMKLSCVASGFTFYDYGMNWVRQSPEKGLEWVAQIRNKPYNYETYYSDSVKGRFTISRDDSKSSVYLQMNNLRVEDMGIYYCTGSYYGMDYWGQGTSVTVS chain 2 DVVMTQTPLSLPVSLGDQASISCRSSQSLVHSNGNTYLRWYLQKPGQSPKVLIYKVSNRFSGVPDRFSGSGSGTDFTLKISRVEAEDLGVYFCSQSTHVPWTFGGGTKLEIK [chain 1 S30Y W33G], the dissociation constant (Kd) with fluorescein was not below 10 µM. Besides, in data set [1], the yeast surface expression was found to be 0.602.
As to chain 1 EVKLDETGGGLVQPGRPMKLSCVASGFTFYDYLMNWVRQSPEKGLEWVAQIRNKPYNYETYYSDSVKGRFTISRDDSKSSVYLQMNNLRVEDMGIYYCTGSYYGMDYWGQGTSVTVS chain 2 DVVMTQTPLSLPVSLGDQASISCRSSQSLVHSNGNTYLRWYLQKPGQSPKVLIYKVSNRFSGVPDRFSGSGSGTDFTLKISRVEAEDLGVYFCSQSTHVPWTFGGGTKLEIK [chain 1 S30Y W33L], the Kd in the data set with fluorescein was not below 10 µM. In addition, the yeast surface expression in data set [1] was determined as 0.755.
Regarding chain 1 EVKLDETGGGLVQPGRPMKLSCVASGFTFYDYWMCWVRQSPEKGLEWVAQIRNKPYNYETYYSDSVKGRFTISRDDSKSSVYLQMNNLRVEDMGIYYCTGSYYGMDYWGQGTSVTVS chain 2 DVVMTQTPLSLPVSLGDQASISCRSSQSLVHSNGNTYLRWYLQKPGQSPKVLIYKVSNRFSGVPDRFSGSGSGTDFTLKISRVEAEDLGVYFCSQSTHVPWTFGGGTKLEIK [chain 1 S30Y N35C], the Kd in the data set with fluorescein is not below 10 µM. In data set [1], the yeast surface expression worked out at 0.686.
The matching figures for chain 1 EVKLDETGGGLVQPGRPMKLSCVASGFTFYDYWMNWVRQSPEKGLEWVAQIRNKPYNYETYYSDSVKGRFTISRDDSKSSVYLQMNNLRVEDMGIYYCTGSYYGMDYWGQGTSVTVS chain 2 DVVMTQTPLSLPVSLGDQASISCRSSQSLVHSNGNTYLRWYLQKPGQSPKVLIYKVSNRFSGVPDRFSGSGSGTDFTLKISRVEAEDLGVYFCSQSTHVPWTFGGGTKLEIK [chain 1 S30Y]: 0.00146 µM and 0.759.
For chain 1 EVKLDETGGGLVQPGRPMKLSCVASGFTFYTYWMNWVRQSPEKGLEWVAQIRNKPYNYETYYSDSVKGRFTISRDDSKSSVYLQMNNLRVEDMGIYYCTGSYYGMDYWGQGTSVTVS chain 2 DVVMTQTPLSLPVSLGDQASISCRSSQSLVHSNGNTYLRWYLQKPGQSPKVLIYKVSNRFSGVPDRFSGSGSGTDFTLKISRVEAEDLGVYFCSQSTHVPWTFGGGTKLEIK [chain 1 S30Y D31T], in that order: 0.00265 µM and 0.428.
Turning to chain 1 EVKLDETGGGLVQPGRPMKLSCVASGFTFYAYWMAWVRQSPEKGLEWVAQIRNKPYNYETYYSDSVKGRFTISRDDSKSSVYLQMNNLRVEDMGIYYCTGSYYGMDYWGQGTSVTVS chain 2 DVVMTQTPLSLPVSLGDQASISCRSSQSLVHSNGNTYLRWYLQKPGQSPKVLIYKVSNRFSGVPDRFSGSGSGTDFTLKISRVEAEDLGVYFCSQSTHVPWTFGGGTKLEIK [chain 1 S30Y D31A N35A], the Kd with fluorescein is not below 10 µM. The yeast surface expression in data set [1] stood at 0.451.
The matching figures for chain 1 EVKLDETGGGLVQPGRPMKLSCVASGFTFYDYWMNAVRQSPEKGLEWVAQIRNKPYNYETYYSDSVKGRFTISRDDSKSSVYLQMNNLRVEDMGIYYCTGSYYGMDYWGQGTSVTVS chain 2 DVVMTQTPLSLPVSLGDQASISCRSSQSLVHSNGNTYLRWYLQKPGQSPKVLIYKVSNRFSGVPDRFSGSGSGTDFTLKISRVEAEDLGVYFCSQSTHVPWTFGGGTKLEIK [chain 1 S30Y W36A]: not below 10 µM and 0.404.
